Results on one substance are retold here after patent US20040096942A1.

Experiment [1] has as its target GAL4CfEcR-DEF (yeast; spruce budworm Choristoneura fumiferana). As to the kind of experiment: cell-based or functional assay.
Experiment [2] deals with GAL4DmEcR-DEF (yeast; fruit fly Drosophila melanogaster). As to the kind of experiment: cell-based or functional assay.

VP16MmRXRα(1-7)-LmUSP(8-12)-EF: the maximum fold induction of luciferase reporter, two-hybrid gene switch in NIH3T3 cells (fold induction) is 11000 in experiment [1] and 1760 in experiment [2].
